Results on three proteins are retold here after paper PMC10811823.

The nature of data set [1]: Co-IP/western after MG132. The note with it: glycan changed form; control: control RAW264.7.
The nature of data set [2]: CHX chase, western blot (protein persistence). The note with it: glycan changed form; control: control RAW264.7.
Data set [3] in a line: western blot. The note with it: glycan changed form; control: control RAW264.7. For orientation: Immunoblotting shows a protein as a band on a membrane.
Data set [4] can be described thus: Co-IP/western after MG132, HEK 293T. The note with it: glycan lost; control: WT/LG.

B1: Lgals3bp (galectin 3 binding protein): RAW/shM1 (MGAT3 silenced) (protein)
parent chain: MALLWLLSVFLLVPGTQGTEDGDMRLVNGASANEGRVEIFYRGRWGTVCDNLWNLLDAHVVCRALGYENATQALGRAAFGPGKGPIMLDEVECTGTESSLASCRSLGWMVSRCGHEKDAGVVCSNDTTGLHILDLSGELSDALGQIFDSQQGCDLFIQVTGQGYEDLSLCAHTLILRTNPEAQALWQVVGSSVIMRVDAECMPVVRDFLRYFYSRRIEVSMSSVKCLHKLASAYGATELQDYCGRLFATLLPQDPTFHTPLDLYAYARATGDSMLEDLCVQFLAWNFEPLTQSESWSAVPTTLIQALLPKSELAVSSELDLLKAVDQWSTETIASHEDIERLVEQVRFPMMLPQELFELQFNLSLYQDHQALFQRKTMQALEFHTVPVEVLAKYKGLNLTEDTYKPRLYTSSTWSSLVMASTWRAQRYEYNRYNQLYTYGYGSVARYNSYQSFQTPQHPSFLFKDKQISWSATYLPTMQSCWNYGFSCTSNELPVLGLTTSSYSNPTIGYENRVLILCGGYSVVDVTSFEGSKAPIPTALDTNSSKTPSLFPCASGAFSSFRVVIRPFYLTNSTDMV
In the case of B1, in data set [1], the “other: ubiquitination” value is on record as “decreases”. Further, in data set [2], the degradation_or_half_life result was “increases”. In addition, the expression_or_secretion entry in data set [3] was “increases”.

B2: Lgals3bp (galectin 3 binding protein): RAW/MGAT3 (MGAT3 overexpressed) (protein)
parent chain: B1 parent chain
For the protein B2, the degradation_or_half_life entry in data set [2] is given as “decreases”.

B3: Lgals3bp (galectin 3 binding protein): N69A/LG (protein)
parent chain: B1 parent chain
As to B3, the “other: ubiquitination” value in data set [4] is “decreases”.
